In US20250243260A1 (ALPINE IMMUNE SCIENCES, published 2025):

Experiments:
human PD-L1 [1] = target: T1, human PD-L1 (human, UniProt Q9NZQ7 19-290); experiment: flow cytometry, SCC152 cells transduced with human PD-L1, anti-human Fc detection
T1 construct: whole, on cells
Method: (§1) Binding affinity to CD28 was determined using primary human T cells which endogenously express CD28. Binding to PD-L1 was determined using SCC152 cells transduced with human PD-L1. Binding to CTLA-4 was measured using Chinese hamster ovary (CHO) cells stably transduced to express human CTLA-4.
(§2) For staining and analysis by flow cytometry, 75,000 human T cells, SCC152/PD-L1 cells, or CHO/CTLA-4 cells were plated in 96-well round-bottom plates. Cells were spun down and resuspended in staining buffer (PBS (phosphate buffered saline), 1% BSA (bovine serum albumin), 1 mM EDTA, and 0.1% sodium azide) for 20 minutes to block non-specific binding. Afterwards, cells were centrifuged, stain buffer aspirated, and then resuspended in 50 μL of a 1:5 serial dilution of each CD80-Fc candidate variant starting at 100 nM ending at 0.8 nM. Primary staining was performed on ice for 60 minutes, before washing cells in […] staining buffer three times. PE-conjugated anti-human Fc (Jackson ImmunoResearch, USA) was diluted 1:250 in 50 μL staining buffer and added to cells and incubated another 30 minutes at 4° C. Cells were washed two times in 150 μL stain buffer and then fixed in 2% formaldehyde/PBS for 5 minutes at room temperature. Samples were analyzed CytoFLEX LX flow cytometer (Beckman Coulter, USA). Median Fluorescence Intensity (MFI) was calculated for each cell type using the CytExpert software from Beckman Coulter.
(§3) Binding assays were carried out to assess the specificity and affinity of multivalent proteins to cell-expressed CTLA-4, CD28, and PD-L1 counter structures.

human PD-L1 [2] = target: T1, human PD-L1; experiment: flow cytometry, SCC152 cells transduced with human PD-L1; MFI against WT CD80 ECD-Fc
Method: as §1, §2, §3

T1 sequence (Q9NZQ7 19-290): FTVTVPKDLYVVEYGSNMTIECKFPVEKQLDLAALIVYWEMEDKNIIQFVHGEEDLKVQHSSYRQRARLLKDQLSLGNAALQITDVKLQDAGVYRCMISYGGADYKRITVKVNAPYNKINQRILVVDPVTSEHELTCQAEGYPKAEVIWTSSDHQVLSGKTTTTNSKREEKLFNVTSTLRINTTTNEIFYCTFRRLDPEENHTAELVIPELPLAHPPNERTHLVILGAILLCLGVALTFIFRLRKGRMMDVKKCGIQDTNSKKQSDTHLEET

| Binder | Anti-Human Fc (MFI) at 0.8 nM (human PD-L1 [1]) [MFI] | Anti-Human Fc (MFI) at 4 nM (human PD-L1 [1]) [MFI] | Anti-Human Fc (MFI) at 20 nM (human PD-L1 [1]) [MFI] | Anti-Human Fc (MFI) at 100 nM (human PD-L1 [1]) [MFI] | Fold change vs WT CD80 @20 nM (human PD-L1 [2]) [fold] |
| --- | --- | --- | --- | --- | --- |
| CD80-Fc-CD80_339 (CD80_185 V11Y/T28Y/M47L) (Fc fusion, tetravalent) VIHVTKEVKEYATLSCGHNVSVEELAQYRIYWQKEKKMVLTMMSGDLNIWPEYKNRTIFDITNNLSIVILALRPSDEGTYECVVLKYEKDAFKREHLAEVTLSVKADGSGGGGSPCPPCPAPEFLGGPSVFLFPPKPKDTLMISRTPEVTCVVVDVSQEDPEVQFNWYVDGVEVHNAKTKPREEQFNSTYRVVSVLTVLHQDWLNGKEYKCKVSNKGLPSSIEKTISKAKGQPREPQVYTLPPSQEEMTKNQVSLTCLVKGFYPSDIAVEWESNGQPENNYKTTPPVLDSDGSFFLYSRLTVDKSRWQEGNVFSCSVMHEALHNHYTQKSLSLSLGGGGGSGGGGSGGGGSVIHVTKEVKEYATLSCGYNVSVEELAQYRIYWQKEKKMVLTMMSGDLNIWPEYKNRTIFDITNNLSIVILALRPSDEGTYECVVLKYEKDAFKREHLAEVTLSVKAD | 4180 | 6180 | 7120 | 8090 | 10.4 |
| CD80-Fc-CD80_341 (CD80_197 V11Y/E35D/Y87Q/T101R) (Fc fusion, tetravalent) VIHVTKEVKEYATLSCGHNVSVEELAQTRIYWQKDKKMVLTMMSGDMNIWPEYKNRTIFDITNNLSIVILALRPSDEGTYECVVLKQEKDAFKREHLAEVRLSVKADGSGGGGSPCPPCPAPEFLGGPSVFLFPPKPKDTLMISRTPEVTCVVVDVSQEDPEVQFNWYVDGVEVHNAKTKPREEQFNSTYRVVSVLTVLHQDWLNGKEYKCKVSNKGLPSSIEKTISKAKGQPREPQVYTLPPSQEEMTKNQVSLTCLVKGFYPSDIAVEWESNGQPENNYKTTPPVLDSDGSFFLYSRLTVDKSRWQEGNVFSCSVMHEALHNHYTQKSLSLSLGGGGGSGGGGSGGGGSVIHVTKEVKEYATLSCGYNVSVEELAQTRIYWQKDKKMVLTMMSGDMNIWPEYKNRTIFDITNNLSIVILALRPSDEGTYECVVLKQEKDAFKREHLAEVRLSVKAD | 4750 | 6410 | 7100 | 7810 | 10.4 |
